Changes are numbered by the printed parent chain. Names and notes keep the numbering of the source. Values joined by “and” are separate entries in the source; they are usually repeats but may differ in a detail not shown here. Equal entries are not always repeated. Where two headings read alike, the source gives them in different places.
Experiments:
Ec NucC [1] = biological target: T1, Ec NucC (Escherichia coli, UniProt D7Y2H5); test: ITC; assay type: binding
Ec NucC [2] = biological target: T1, Ec NucC; test: ITC; assay type: binding; remark: listed apart in the source
Pa NucC = Pa NucC (Pseudomonas aeruginosa, UniProt P0DTF8, D73N); test: co-crystal structure at […] Å; assay type: binding
Ec NucC [3] = biological target: T1, Ec NucC; test: ITC; assay type: binding; remark: listed apart in the source
Vm NucC = biological target: T2, Vm NucC (Vibrio metoecus, UniProt P0DUD6); test: plasmid digestion assay, weak activation; assay type: biochemical
T2 sequence (P0DUD6 1-245): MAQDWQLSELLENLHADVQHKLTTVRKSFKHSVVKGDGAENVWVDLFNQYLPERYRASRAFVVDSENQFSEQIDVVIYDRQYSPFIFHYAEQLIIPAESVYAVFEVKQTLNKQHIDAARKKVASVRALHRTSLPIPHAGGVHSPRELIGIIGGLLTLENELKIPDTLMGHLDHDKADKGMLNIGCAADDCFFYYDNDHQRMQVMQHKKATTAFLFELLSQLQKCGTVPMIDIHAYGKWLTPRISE

SEC-MALS [4] = biological target: the molecule itself; test: SEC-MALS
SEC-MALS [5] = biological target: the molecule itself; test: SEC-MALS; remark: listed apart in the source
crystal structure = biological target: the molecule itself; test: crystal structure

`Nc1ncnc2c1ncn2[C@@H]1O[C@@H]2COP(=O)(O)O[C@H]3[C@@H](O)[C@H](n4cnc5c(N)ncnc54)O[C@@H]3COP(=O)(O)O[C@H]2[C@H]1O` [3′,3′ cyclic di-AMP] was tested. Which Kd (Ec NucC [1]) did it give?
The Kd was 2600 nM.

How did the Kd (Ec NucC [2]) turn out when `Nc1ncnc2c1ncn2[C@@H]1O[C@H](COP(=O)(O)O[C@H]2[C@@H](O)[C@H](n3cnc4c(N)ncnc43)O[C@@H]2COP(=O)(O)O)[C@@H](O)[C@H]1O` [5′-pApA] was run?
Its Kd is 4400 nM.

How did the “co-crystal structure at 1.45 Å; SEC-MALS hexamer assembly of Pa NucC” value (Pa NucC) turn out when `Nc1ncnc2c1ncn2[C@@H]1O[C@@H]2COP(=O)(O)O[C@H]3[C@@H](O)[C@H](n4cnc5c(N)ncnc54)O[C@@H]3COP(=O)(O)O[C@H]3[C@@H](O)[C@H](n4cnc5c(N)ncnc54)O[C@@H]3COP(=O)(O)O[C@H]2[C@H]1O` [cAAA] was run?
Its value is “We obtained crystals of P. aeruginosa ATCC27853 NucC D73N mutant bound to cAAA”.

And the Kd (Ec NucC [3])?
Its Kd is 700 nM.

For `Nc1nc2c(ncn2[C@@H]2O[C@@H]3COP(=O)(O)O[C@H]4[C@@H](O)[C@H](n5cnc6c(N)ncnc65)O[C@@H]4COP(=O)(O)O[C@H]4[C@@H](O)[C@H](n5cnc6c(N)ncnc65)O[C@@H]4COP(=O)(O)O[C@H]3[C@H]2O)c(=O)[nH]1` [cAAG], which “plasmid digestion assay, weak activation” value (Vm NucC) is on record?
The value was “weakly activated by both cAA and cAAG”.

Which “plasmid digestion assay, weak activation” value (Vm NucC) does the source give for `Nc1ncnc2c1ncn2[C@@H]1O[C@@H]2COP(=O)(O)O[C@H]3[C@@H](O)[C@H](n4cnc5c(N)ncnc54)O[C@@H]3COP(=O)(O)O[C@H]2[C@H]1O` [cAA] here?
Its value is “weakly activated by both cAA and cAAG”.

B1: Vibrio metoecus sp. RC341 NucC (enzyme, UniProt P0DUD6 1-245, looked up)
chain: T2 sequence (P0DUD6 1-245)
B1 was tested. Which “stoichiometry N” value (SEC-MALS [4]) did it give?
The value was 3 and 6.

B2: P. aeruginosa ATCC 27853 NucC (wild type) (enzyme)
chain: MSQWSLSQLLSSLHEDIQQRLSVVRKTFGHPGTKGDASENVWIDMLDTYLPKRYQAAKAHVVDSLGNFSQQIDVVVFDRQYSPFIFTYENETIIPAESVYAVFEAKQTADAGLVAYAQEKVASVRRLHRTSLPIPHAGGTYPAKPLIPILGGLLTFESEWSPALGPSMDKALNANLTEGRLDIGCVAAHGHFFYDQASGAYSYTNENKPATAFLFKLIAQLQFSGTVPMIDVEAYGQWLTK
For B2, which “stoichiometry N” value (SEC-MALS [5]) is on record?
Its value is 6.

And the “stoichiometry N” value (SEC-MALS [4])?
The value was 3.

B3: E. coli MS115-1 NucC (wild type) (enzyme, UniProt D7Y2H5 1-241, looked up)
chain: MSDWSLSQLFASLHEDIQLRLGTARKAFQHPGAKGDASEGVWIEMLDTYLPKRYQAANAFVVDSLGNFSDQIDVVVFDRQYSPFIFKFNEQIIVPAESVYAVFEAKQSASADLVAYAQRKVASVRRLHRTSLPIPHAGGTYPAKPLIPILGGLLTFESDWSPALGMSFDKALNGDLSDGRLDMGCVASHGHFYFNNIDSKFNFEHGNKPATAFLFRLIAQLQFSGTVPMIDIDAYGKWLAN
With B3 as the molecule, how does the “stoichiometry N” value (SEC-MALS [4]) read?
The value was 3.

What about the “stoichiometry N” value (crystal structure) of the same molecule?
The value was 6.

B4: Ec NucC W4A mutant with D73N (SEC-MALS sample) (enzyme, E. coli MS115-1, UniProt D7Y2H5 1-241, looked up)
chain: B3 chain with W4A, D73N
Does B4 bind (SEC-MALS [5])?
Result: binds

B5: Ec NucC L19D mutant with D73N (SEC-MALS sample) (enzyme, E. coli MS115-1, UniProt D7Y2H5 1-241, looked up)
chain: B3 chain with L19D, D73N
B5 was tested. Which “stoichiometry N” value (SEC-MALS [5]) did it give?
Its value is 3.

B6: Ec NucC L19A mutant with D73N (SEC-MALS sample) (enzyme, E. coli MS115-1, UniProt D7Y2H5 1-241, looked up)
chain: B3 chain with L19A, D73N
Does B6 bind (SEC-MALS [5])?
Result: binds

Reference: publication PMC7065454 (Molecular cell, 2020)
